Key:
PPARγ = molecular target: T1, PPARγ (Oryctolagus cuniculus, UniProt O19052); assay: J3-TK-LUC PPRE-driven luciferase reporter in RK-13 cells; format: cell-based, rabbit
T1 construct: endogenous in cells; host or cells: RK-13 (rabbit kidney, ATCC)
T1 sequence (O19052 1-475): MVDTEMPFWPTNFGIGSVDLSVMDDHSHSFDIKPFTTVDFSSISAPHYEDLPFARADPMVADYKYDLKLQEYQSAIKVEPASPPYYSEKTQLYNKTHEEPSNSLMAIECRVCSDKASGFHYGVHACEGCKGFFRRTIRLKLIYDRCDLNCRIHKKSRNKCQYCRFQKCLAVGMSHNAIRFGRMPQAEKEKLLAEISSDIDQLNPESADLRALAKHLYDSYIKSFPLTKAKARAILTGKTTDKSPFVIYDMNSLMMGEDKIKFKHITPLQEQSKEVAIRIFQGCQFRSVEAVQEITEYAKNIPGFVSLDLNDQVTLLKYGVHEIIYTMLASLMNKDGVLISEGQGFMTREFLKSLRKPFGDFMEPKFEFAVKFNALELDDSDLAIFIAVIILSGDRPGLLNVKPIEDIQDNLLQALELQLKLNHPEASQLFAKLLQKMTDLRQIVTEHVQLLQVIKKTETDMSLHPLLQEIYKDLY
Description: Next we wanted to assess whether the above-mentioned changes in PPARγ expression were associated with changes in the capabilities of PPARγ to transactivate. A PPRE-driven luciferase reporter gene, containing three copies of the apo A-II J site (Vu-Dac et al., 1995), ie. J3-TK-LUC, was transfected into rabbit kidney-derived RK-13 cells and half of the cells were maintained in cholesterol-depleted medium whereas the other half was grown in the same medium supplemented with a mixture of cholesterol and 25-hydroxycholesterol.
Site-directed mutagenesis of the E-box in the PPARγ3 promoter was performed by splicing overlapping ends polymerase chain reaction (Ho, et al., Gene 77:51–59 (1989)), using the oligo pairs LF-106/LF-60 and LF-107/LF-68, to generate the plasmid pGL3γ3p800-E-boxmut. This changed the three bases underlined in the sequence 5′-[…]-3′ to 5′-[…]-3′ (SEQ ID NOS: 41 and 42, respectively. The J3-TK-LUC (Vu-Dac et al., 1995) and ACO-TK-LUC (Osumi et al., Biophys. Res. Commun. 175:866–871 (1991)) luciferase reporter vectors and the expression vectors encoding for ADD-1, a dominant negative form of ADD-1, and SREBP-1a (Tontonoz et al., Mol. Cell. Biol. 13:4753–4759 (1993)); Yokoyama et al., Cell 75:187–197 (1993)) were described before. […]

[1] = molecular target: T2, hPPARγ2, in vitro transcribed/translated protein (human, UniProt P37231 1-505); assay: EMSA with in vitro translated proteins on the apoA-II J site PPRE oligonucleotide; heterodimer complex on DNA
T2 construct: PPARγ2 isoform, with the additional N-terminal amino acids encoded by exon B; also called human PPARγ2
T2 sequence (looked up): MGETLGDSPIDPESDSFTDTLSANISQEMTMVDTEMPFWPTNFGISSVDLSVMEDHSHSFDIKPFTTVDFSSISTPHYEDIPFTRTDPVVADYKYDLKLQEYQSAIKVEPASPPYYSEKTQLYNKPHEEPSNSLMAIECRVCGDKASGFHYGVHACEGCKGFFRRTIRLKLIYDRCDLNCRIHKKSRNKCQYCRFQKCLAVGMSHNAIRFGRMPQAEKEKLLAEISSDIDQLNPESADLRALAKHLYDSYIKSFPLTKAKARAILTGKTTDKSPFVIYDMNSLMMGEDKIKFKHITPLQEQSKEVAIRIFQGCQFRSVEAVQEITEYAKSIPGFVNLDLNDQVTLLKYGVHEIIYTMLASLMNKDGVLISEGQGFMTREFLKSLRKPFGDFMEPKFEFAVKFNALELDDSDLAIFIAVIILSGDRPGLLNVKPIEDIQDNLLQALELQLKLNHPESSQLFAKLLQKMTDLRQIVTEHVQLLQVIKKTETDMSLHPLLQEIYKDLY
Description: To analyze whether PPARγ could bind to a PPRE, classically composed of direct repeats spaced by one intervening nucleotide (DR-1), EMSA was performed using in vitro transcribed/translated PPARγ2 protein. An oligonucleotide containing a high affinity PPRE, previously identified in the apoA-II promoter J site, was used in EMSA (29).
7. Electrophoretic Mobility Shift Assays (EMSA) and Oligonucleotide Sequences haPPARγ (39), hPPARγ2, and mRXRα (40) proteins were synthesized in vitro in rabbit reticulocyte lysate (Promega). Molecular weights and quality of the in vitro translated proteins were verified by SDS-PAGE. PPAR (2 μl) and/or RXR (2 μl) were incubated for 15 min on ice in a total volume of 20 μl with 1-ng probe, 2.5 μg of poly(dI-dC) and 1 μg of herring sperm DNA in binding buffer (10 mM Tris-HCl pH 7.9, 40 mMKCl, 10% glycerol, 0.05% Nonidet P-40, and 1 mM dithiothreitol). For competition experiments, increasing amounts (from 10- to 200-fold molar excess) of cold oligonucleotide (AII-J-PPRE, 5'-[…]-3' (41) SEQ ID NO: 24; acyl-CoA oxidase (ACO)-PPRE, 5'-[…]-3' (42) SEQ ID NO: 25; or LPL-PPRE, 5'-[…]-3 (23) SEQ ID NO: 26; were included just before adding T4-PNK end-labeled AII-J-PPRE oligonucleotide. DNA-protein complexes were separated by electrophoresis on a 4% polyacrylamide gel in 0.25×TBE buffer at 4° C. (43).

ADD-1 = molecular target: T3, ADD-1 (UniProt P56720-1 P56720-1:1-1110); assay: cell_activity; pGL3gamma3p800 luciferase reporter, Hep G2; details: tags: expression vector, Hep G2 cells
T3 sequence: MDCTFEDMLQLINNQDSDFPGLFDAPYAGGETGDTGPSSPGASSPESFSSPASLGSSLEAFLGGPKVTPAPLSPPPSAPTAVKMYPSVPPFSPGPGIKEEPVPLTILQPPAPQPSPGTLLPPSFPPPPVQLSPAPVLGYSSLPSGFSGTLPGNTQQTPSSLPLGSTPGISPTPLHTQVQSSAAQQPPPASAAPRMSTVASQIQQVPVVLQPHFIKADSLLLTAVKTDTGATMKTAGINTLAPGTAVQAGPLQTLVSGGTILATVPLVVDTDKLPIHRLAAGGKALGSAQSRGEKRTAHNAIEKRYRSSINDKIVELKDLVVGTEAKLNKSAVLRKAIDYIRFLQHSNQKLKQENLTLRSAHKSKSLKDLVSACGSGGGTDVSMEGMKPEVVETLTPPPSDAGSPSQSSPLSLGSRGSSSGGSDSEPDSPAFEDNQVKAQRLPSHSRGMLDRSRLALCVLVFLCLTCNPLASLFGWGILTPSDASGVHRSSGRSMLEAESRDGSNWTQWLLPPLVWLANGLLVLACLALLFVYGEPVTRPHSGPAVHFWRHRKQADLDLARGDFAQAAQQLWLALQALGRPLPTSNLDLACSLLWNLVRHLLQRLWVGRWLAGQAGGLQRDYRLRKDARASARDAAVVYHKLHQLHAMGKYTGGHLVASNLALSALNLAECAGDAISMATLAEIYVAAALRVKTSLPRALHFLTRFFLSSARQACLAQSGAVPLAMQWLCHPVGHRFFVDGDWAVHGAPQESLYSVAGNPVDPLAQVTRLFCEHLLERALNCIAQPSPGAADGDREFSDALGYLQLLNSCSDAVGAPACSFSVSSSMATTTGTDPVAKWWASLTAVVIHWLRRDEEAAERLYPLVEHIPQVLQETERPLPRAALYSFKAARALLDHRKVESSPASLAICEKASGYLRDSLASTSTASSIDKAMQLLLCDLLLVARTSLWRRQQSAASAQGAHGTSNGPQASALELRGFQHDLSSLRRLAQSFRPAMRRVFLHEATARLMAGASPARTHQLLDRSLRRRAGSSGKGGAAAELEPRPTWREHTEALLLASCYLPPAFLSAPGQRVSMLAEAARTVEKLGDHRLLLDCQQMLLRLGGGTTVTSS
Description: To assess whether ADD-1 regulates the expression of the hPPARγ3 mRNA, we cotransfected either an expression plasmid coding for ADD-1 together with the pGL3γ3p800 luciferase reporter vector.

PPARγ mRNA = assay: RNase protection assay of PPARγ mRNA in retrovirally infected 3T3-L1 cells; format: cell-based, mouse; details: 3T3-L1 preadipocytes and adipocytes; retroviral ectopic expression
Description: To study the effects of ADD-1 on PPARγ expression in more detail, either an empty retroviral vector pBabe or the same vector encoding for full length ADD-1 or the superactive ADD-1-403 form were introduced into 3T3-L1 cells via retroviral infection. […] Infected cells were then cultured to confluence and consecutively treated with differentiation medium. Total RNA was isolated at confluence (preadipocytes) and at day 6 after confluence (adipocytes) from the cells expressing either the empty pBabe vector or the same vector encoding for ADD-1 or ADD-1-403, a truncated form of ADD-1, equivalent to the proteolytically activated protein, which lacks the membrane anchoring domain. […] The effect of retroviral infection was more pronounced in 3T3-L1 adipocytes relative to preadipocytes.
Control cells received vehicle only.
The absolute mRNA concentration of the differentially spliced PPARγ variants was measured by RNase protection assay exactly as described (Lemberger et al., J. Biol. Chem. 271:1764–1769 (1995)). The full lenght PPARγ2 coding region plus 33 bp of the 5′ UTR was amplified from human adipose tissue RNA by RT-PCR with the primer pair LF-3/LF-36 and was inserted in the inverted orientation (3′ to 5′ in front of the T7 promoter) into the EcoRI site of the expression vector pSG5 (Stratagene, La Jolla, Calif.). […]

For `CN(CCOc1ccc(CC2SC(=O)NC2=O)cc1)c1ccccn1` (centres unmarked) [BRL 49,653], the “J3-TK-LUC reporter activation under cholesterol depletion versus supplemented medium” value (PPARγ; cholesterol-depleted medium) was “activated to a significantly higher level” and the “promoter activity of J3-TK-LUC reporter” value (PPARγ; increasing amounts of ligand, cholesterol-depleted or supplemented medium) was “dose-dependent activation”.

B1: mRXRα, in vitro translated protein (receptor, mouse, UniProt P28700 1-467, looked up)
chain: MDTKHFLPLDFSTQVNSSSLNSPTGRGSMAVPSLHPSLGPGIGSPLGSPGQLHSPISTLSSPINGMGPPFSVISSPMGPHSMSVPTTPTLGFGTGSPQLNSPMNPVSSTEDIKPPLGLNGVLKVPAHPSGNMASFTKHICAICGDRSSGKHYGVYSCEGCKGFFKRTVRKDLTYTCRDNKDCLIDKRQRNRCQYCRYQKCLAMGMKREAVQEERQRGKDRNENEVESTSSANEDMPVEKILEAELAVEPKTETYVEANMGLNPSSPNDPVTNICQAADKQLFTLVEWAKRIPHFSELPLDDQVILLRAGWNELLIASFSHRSIAVKDGILLATGLHVHRNSAHSAGVGAIFDRVLTELVSKMRDMQMDKTELGCLRAIVLFNPDSKGLSNPAEVEALREKVYASLEAYCKHKYPEQPGRFAKLLLRLPALRSIGLKCLEHLFFFKLIGDTPIDTFLMEMLEAPHQAT
notes: also called mouse retinoid X receptor alpha
B1: binds [1].

B2: PPARgamma3 E-box (LF-102; core printed) (dsDNA)
DNA 1: ATTCATGTGACAT
DNA 2: ATGTCACATGAAT
For B2, the activity (ADD-1) was ≥ 4 fold.

B3: ADD-1-403: truncated superactive form of ADD-1 lacking the membrane anchoring domain, equivalent to the proteolytically activated protein (protein, UniProt P56720 1-403, looked up, fragment)
chain: MDELPFGEAALEQALAEVCEMDAALLTDIEDMLQLINNQDSDFPGLFDAPYAGGETGDTGPSSPGASSPESFSSPASLGSSLEAFLGGPKVTPAPLSPPPSAPTAVKMYPSVPPFSPGPGIKEEPVPLTILQPPAPQPSPGTLLPPSFPPPPVQLSPAPVLGYSSLPSGFSGTLPGNTQQTPSSLPLGSTPGISPTPLHTQVQSSAAQQPPPASAAPRMSTVASQIQQVPVVLQPHFIKADSLLLTAVKTDTGATMKTAGINTLAPGTAVQAGPLQTLVSGGTILATVPLVVDTDKLPIHRLAAGGKALGSAQSRGEKRTAHNAIEKRYRSSINDKIVELKDLVVGTEAKLNKSAVLRKAIDYIRFLQHSNQKLKQENLTLRSAHKSKSLKDLVSACGSGGGT
B3 was tested, and the “expression of PPARγ mRNA” value (PPARγ mRNA) was “significantly more active”.

From patent US7098025B1, “Human peroxisome proliferator activated receptor gamma (pparγ) gene regulatory sequences and uses therefor” (Ligand Pharmaceuticals Incorporated, priority 1997, dated 2006)
